What was measured:
Human factor XII (human) [1] = biological target: Human factor XII (human)
Human factor XII (human) [2] = biological target: Human factor XII (human); remark: listed apart in the source
[3] = biological target: Recombinant wild-type phospholipid transfer protein (rPLTP) (human) (UniProt P55058); test: SPR; BIAcore 3000; rPLTP with C-terminal His-tag captured on anti-His tag monoclonal antibody immobilised on a CM5 chip; factor XII (0-750 nM) or factor XI injected; 50 mM Hepes, 150 mM NaCl, 5 mM CaCl2, pH 7.4; global fit, simple Langmuir model; apparent Kd

inhibition by rPLTP of sulfatide-stimulated factor XII autoactivation in a purified system in the presence of VLDL (factor XIIa amidolytic activity, S2302, at 15 min) (Human factor XII (human) [1]) | inhibition by rPLTP of sulfatide-induced kallikrein generation (contact activation) in plasma (S2302 amidolytic activity at 6 min) (Human factor XII (human) [2]) | Kd [3] | koff [3] | kon [3] | Substance
1.2 µg/mL | 0.69 µg/mL |  |  |  | Recombinant wild-type phospholipid transfer protein (rPLTP) (from UniProt P55058 18-493) (natural protein)
 |  | 190 nM | 0.006 s⁻¹ | 31000 M⁻¹ s⁻¹ | Human factor XII (natural protein)
